Data published in publication PMC6411835.

Biological target: T1, Zip2(499-704);Spo16 (Saccharomyces cerevisiae;Saccharomyces cerevisiae) (UniProt P53061+P17122)
T1 sequence 1: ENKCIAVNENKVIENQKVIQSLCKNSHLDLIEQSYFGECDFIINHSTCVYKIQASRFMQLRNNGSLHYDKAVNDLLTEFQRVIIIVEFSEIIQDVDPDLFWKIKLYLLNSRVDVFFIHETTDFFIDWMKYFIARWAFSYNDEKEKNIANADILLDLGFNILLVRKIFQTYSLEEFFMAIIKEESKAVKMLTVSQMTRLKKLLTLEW
T1 sequence 2: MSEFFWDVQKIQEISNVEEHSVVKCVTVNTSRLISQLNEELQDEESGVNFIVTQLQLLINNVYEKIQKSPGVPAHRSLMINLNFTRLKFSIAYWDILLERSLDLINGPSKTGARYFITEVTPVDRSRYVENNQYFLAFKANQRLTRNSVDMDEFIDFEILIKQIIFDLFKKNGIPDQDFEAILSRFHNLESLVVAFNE
Experiment: EMSA

nicked Holliday Junction
Kd: 5 µM
